Publication PMC8199271

Molecular target: T1, wild-type MBP–CHIP (C-terminus of HSC70-interacting protein, encoded by STUB1) (human), Q9UNE7
T1 chain: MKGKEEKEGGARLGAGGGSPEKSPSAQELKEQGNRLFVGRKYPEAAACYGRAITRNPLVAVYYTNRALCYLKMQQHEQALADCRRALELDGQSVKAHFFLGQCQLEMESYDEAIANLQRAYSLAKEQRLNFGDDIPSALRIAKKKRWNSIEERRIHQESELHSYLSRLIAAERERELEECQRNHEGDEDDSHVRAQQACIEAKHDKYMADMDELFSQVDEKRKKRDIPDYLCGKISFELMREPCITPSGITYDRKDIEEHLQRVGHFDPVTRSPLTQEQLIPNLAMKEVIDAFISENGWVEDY
Experiment: native gel or EMSA; 5 µg MBP–CHIP in Native Sample Buffer on a 10% gel, 4 °C, 3 h at 140 V, Tris/glycine (25 mM Tris, 192 mM glycine) pH 8.3; Coomassie staining, bands analysed by Fiji (ImageJ); self-association (monomer, dimer, higher-order oligomers)
Conditions: remark: other sources report otherwise

stoichiometry N: 2
B1: wild-type MBP–CHIP (C-terminus of HSC70-interacting protein, encoded by STUB1), Q9UNE7-1 1-303 (natural protein)
chain: MKGKEEKEGGARLGAGGGSPEKSPSAQELKEQGNRLFVGRKYPEAAACYGRAITRNPLVAVYYTNRALCYLKMQQHEQALADCRRALELDGQSVKAHFFLGQCQLEMESYDEAIANLQRAYSLAKEQRLNFGDDIPSALRIAKKKRWNSIEERRIHQESELHSYLSRLIAAERERELEECQRNHEGDEDDSHVRAQQACIEAKHDKYMADMDELFSQVDEKRKKRDIPDYLCGKISFELMREPCITPSGITYDRKDIEEHLQRVGHFDPVTRSPLTQEQLIPNLAMKEVIDAFISENGWVEDY
